According to patent US20250145696A1 (BIOVERATIV USA, published 2025):

Target: T1, human C1s (human, UniProt P09871 16-688)
T1 sequence: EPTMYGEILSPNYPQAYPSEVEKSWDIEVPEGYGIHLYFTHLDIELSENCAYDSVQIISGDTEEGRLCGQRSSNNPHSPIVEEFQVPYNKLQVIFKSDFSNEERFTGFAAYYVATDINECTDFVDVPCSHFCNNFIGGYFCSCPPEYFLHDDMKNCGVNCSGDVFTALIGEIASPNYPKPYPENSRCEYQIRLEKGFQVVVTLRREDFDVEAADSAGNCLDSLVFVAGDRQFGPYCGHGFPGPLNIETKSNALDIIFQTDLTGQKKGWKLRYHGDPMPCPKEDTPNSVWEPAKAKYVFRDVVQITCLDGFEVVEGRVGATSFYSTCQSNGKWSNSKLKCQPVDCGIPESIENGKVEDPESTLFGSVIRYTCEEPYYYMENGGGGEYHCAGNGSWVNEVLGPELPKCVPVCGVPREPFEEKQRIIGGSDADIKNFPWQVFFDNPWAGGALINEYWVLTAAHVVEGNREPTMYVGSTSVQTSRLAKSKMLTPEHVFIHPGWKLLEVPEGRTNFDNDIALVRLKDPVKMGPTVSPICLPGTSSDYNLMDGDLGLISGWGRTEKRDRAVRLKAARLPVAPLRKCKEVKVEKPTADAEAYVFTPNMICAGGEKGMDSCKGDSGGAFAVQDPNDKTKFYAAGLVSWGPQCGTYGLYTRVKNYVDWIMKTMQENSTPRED
Assay: cell-based or functional assay

B1: BIVV009 (antibody, human IgG4 S228P, kappa, V domains shown)
VH: EVQLVESGGGLVKPGGSLRLSCAASGFTFSNYAMSWVRQAPGKGLEWVATISSGGSHTYYLDSVKGRFTISRDNSKNTLYLQMNSLRAEDTALYYCARLFTGYAMDYWGQGTLVTVSS
VL: QIVLTQSPATLSLSPGERATMSCTASSSVSSSYLHWYQQKPGKAPKLWIYSTSNLASGVPSRFSGSGSGTDYTLTISSLQPEDFATYYCHQYYRLPPITFGQGTKLEIKR
- IC50 (concentration associated to 50% of the maximum effect) on serum classical complement pathway (CP) activity, WIESLAB assay, inhibitory Emax model: 6.2 µg/mL
